The target of this assay is purified rat recombinant TG2 protein (transgelin-2) (rat) (UniProt Q5XFX0). Kind of assay: SPR. A general note: Surface plasmon resonance follows binding to a sensor surface in real time, without labels.

This note sets out measurements from paper PMC6310021.

pKd: −log10 of the molar value.

Sequence of purified rat recombinant TG2 protein (transgelin-2) (rat) (Q5XFX0 whole entry): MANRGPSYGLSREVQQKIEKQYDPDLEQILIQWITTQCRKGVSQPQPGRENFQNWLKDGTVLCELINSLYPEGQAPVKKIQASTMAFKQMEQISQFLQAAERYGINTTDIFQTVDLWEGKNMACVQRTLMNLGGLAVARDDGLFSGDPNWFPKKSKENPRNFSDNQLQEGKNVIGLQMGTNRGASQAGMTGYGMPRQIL

As for “ezrin (analyte in Biacore surface plasmon resonance) (from UniProt P31977 1-586) (natural protein)”, the negative-log Kd (pKd) is 7.13.

As usually defined, the pKd is the Kd on a negative log10 scale, so that one unit is a factor of ten.
